The values below come from paper PMC4175358, “Conformational Analysis of the Streptococcus pneumoniae Hyaluronate Lyase and Characterization of Its Hyaluronan-specific Carbohydrate-binding Module*^([image sbox.jpg])” (The Journal of Biological Chemistry, 2014).

The target in one data set is T1, SpCBM70 (Streptococcus pneumoniae, UniProt Q54873).
T1 construct: gene SP_0314; N-terminal CBM70 module, Lys53-Ser212, N-terminal His6 tag with thrombin site (pET28), recombinant in E. coli; ITC construct; 4D0Q is the C-terminally His6-tagged Asn54-Ser212 form, unliganded
The experiment in a line: isothermal titration calorimetry. Type of data set: binding. The settings on record: 25 °C, 25 mM Tris-HCl pH 7.5, 50 mM NaCl; too weak to quantify. From the text:
isothermal titration calorimetry on SpCBM70
In general terms: Isothermal titration calorimetry measures the heat released or taken up as one component is titrated into another.

Data set [1] deals with the molecule itself. Nature of the data set: dynamic light scattering; 25 °C, triplicate, 15 acquisitions of 5 s, after size exclusion chromatography and 0.22 µm filter; Hyl 1.0-10.8 mg/ml, PL8 1.4-10.9 mg/ml; associated fraction from expected radii of a globular monomer and dimer; Kd = [monomer]^2/[dimer], dimer to monomers. (In general: In gel filtration, larger molecules generally elute earlier.)

Data set [2] concerns the molecule itself. Nature of the data set: small angle X-ray scattering; 50 mM Tris-HCl pH 8.0, 500 mM NaCl, 288 K, Hyl 1.0-10.8 mg/ml; monomer/dimer mixture modelled with SASREF7MX (P2 symmetry, 30 runs each at 1.0-2.7 mg/ml) and OLIGOMER; Kd = [monomer]^2/[dimer], dimer to monomers.

For Hyaluronan 4-mer, on SpCBM70, the Ka was > 5 × 10^3.

B1: Streptococcus pneumoniae hyaluronate lyase, construct with the CBM, middle (linker) and PL8 domains (residues Lys53-Lys1006) (enzyme)
chain: KNLVENGDFGQTEDGSSPWTGSKAQGWSAWVDQKNSADASTRVIEAKDGAITISSHEKLRAALHRMVPIEAKKKYKLRFKIKTDNKIGIAKVRIIEESGKDKRLWNSATTSGTKDWQTIEADYSPTLDVDKIKLELFYETGTGTVSFKDIELVEVADQLSEDSQTDKQLEEKIDLPIGKKHVFSLADYTYKVENPDVASVKNGILEPLKEGTTNVIVSKDGKEVKKIPLKILASVKDAYTDRLDDWNGIIAGNQYYDSKNEQMAKLNQELEGKVADSLSSISSQADRTYLWEKFSNYKTSANLTATYRKLEEMAKQVTNPSSRYYQDETVVRTVRDSMEWMHKHVYNSEKSIVGNWWDYEIGTPRAINNTLSLMKEYFSDEEIKKYTDVIEKFVPDPEHFRKTTDNPFKALGGNLVDMGRVKVIAGLLRKDDQEISSTIRSIEQVFKLVDQGEGFYQDGSYIDHTNVAYTGAYGNVLIDGLSQLLPVIQKTKNPIDKDKMQTMYHWIDKSFAPLLVNGELMDMSRGRSISRANSEGHVAAVEVLRGIHRIADMSEGETKQCLQSLVKTIVQSDSYYDVFKNLKTYKDISLMQSLLSDAGVASVPRPSYLSAFNKMDKTAMYNAEKGFGFGLSLFSSRTLNYEHMNKENKRGWYTSDGMFYLYNGDLSHYSDGYWPTVNPYKMPGTTETDAKRADSDTGKVLPSAFVGTSKLDDANATATMDFTNWNQTLTAHKSWFMLKDKIAFLGSNIQNTSTDTAATTIDQRKLESGNPYKVYVNDKEASLTEQEKDYPETQSVFLESFDSKKNIGYFFFKKSSISMSKALQKGAWKDINEGQSDKEVENEFLTISQAHKQNRDSYGYMLIPNVDRATFNQMIKELESSLIENNETLQSVYDAKQGVWGIVKYDDSVSTISNQFQVLKRGVYTIRKEGDEYKIAYYNPETQESAPDQEVFKK
notes: Hyaluronate lyase (Hyl) of Streptococcus pneumoniae, a 1066-amino acid protein; residues Lys53-Lys1006, amplified from genomic DNA; lacks the N-terminal secretion signal peptide and the C-terminal cell-wall anchoring motif; the results section prints 53-1007; The His6 tag is joined by a thrombin cleavage site; Theoretical mass printed as 110.6 kDa; In solution a monomer/dimer mixture; also called …
For the molecule B1, the Kd in data set [1] was approximately 37 µM. In data set [2], the Kd was approximately 43 µM and the “stoichiometry N” value was determined as 2.

B2: PL8 catalytic domain of Streptococcus pneumoniae hyaluronate lyase (residues Lys288-Gln1009) (domain or fragment)
chain: KDAYTDRLDDWNGIIAGNQYYDSKNEQMAKLNQELEGKVADSLSSISSQADRTYLWEKFSNYKTSANLTATYRKLEEMAKQVTNPSSRYYQDETVVRTVRDSMEWMHKHVYNSEKSIVGNWWDYEIGTPRAINNTLSLMKEYFSDEEIKKYTDVIEKFVPDPEHFRKTTDNPFKALGGNLVDMGRVKVIAGLLRKDDQEISSTIRSIEQVFKLVDQGEGFYQDGSYIDHTNVAYTGAYGNVLIDGLSQLLPVIQKTKNPIDKDKMQTMYHWIDKSFAPLLVNGELMDMSRGRSISRANSEGHVAAVEVLRGIHRIADMSEGETKQCLQSLVKTIVQSDSYYDVFKNLKTYKDISLMQSLLSDAGVASVPRPSYLSAFNKMDKTAMYNAEKGFGFGLSLFSSRTLNYEHMNKENKRGWYTSDGMFYLYNGDLSHYSDGYWPTVNPYKMPGTTETDAKRADSDTGKVLPSAFVGTSKLDDANATATMDFTNWNQTLTAHKSWFMLKDKIAFLGSNIQNTSTDTAATTIDQRKLESGNPYKVYVNDKEASLTEQEKDYPETQSVFLESFDSKKNIGYFFFKKSSISMSKALQKGAWKDINEGQSDKEVENEFLTISQAHKQNRDSYGYMLIPNVDRATFNQMIKELESSLIENNETLQSVYDAKQGVWGIVKYDDSVSTISNQFQVLKRGVYTIRKEGDEYKIAYYNPETQESAPDQEVFKKLEQ
notes: Hyaluronate lyase (Hyl) of Streptococcus pneumoniae, PL8 catalytic domain, residues Lys288-Gln1009; The His6 tag is joined by a thrombin cleavage site; Expected mass printed as 82 kDa; also called PL8 domain; isolated PL8 domain; source: recombinant, pET28, autoinduction culture
For the molecule B2, in data set [1], the Kd is approximately 180 µM and the “stoichiometry N” value was 2.

As usually defined, the Kd is a measure of binding affinity in units of concentration. By stoichiometry N is commonly meant the number of molecules, sites or subunits per partner or assembly.
